39 molecules from patent US20220380463A1 (Adimab, published 2022) can be followed below.

Substitutions are numbered along the chain they refer to.

First the molecules themselves.
T1: Cynomolgus CD3εδ Fc heterodimer (Cy CD3ε Fc / CD3δ Fc-HIS) (cynomolgus, UniProt Q95LI8 22-100)
T1 chain 1: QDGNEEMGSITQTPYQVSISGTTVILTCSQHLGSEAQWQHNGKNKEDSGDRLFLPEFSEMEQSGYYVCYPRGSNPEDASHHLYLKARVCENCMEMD
T1 chain 2: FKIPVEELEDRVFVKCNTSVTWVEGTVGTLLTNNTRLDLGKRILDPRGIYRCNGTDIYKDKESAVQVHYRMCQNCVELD

B1: SAD10319_P01_A02 (ADI-57301) (antibody, V domains shown)
VH: QVQLVQSGAEVKKPGASVKVSCKASGYTFTEYEMHWVRQAPGQRLEWMGWINPLTGNTKYSQKFQGRVTITRDTSASTAYMELSSLRSEDTAVYYCARDHYGHYFYDVWGQGTLVTVSS
VL: DIVMTQSPDSLAVSLGERATINCKSSQSLLNARTGKNYLAWYQQKPGQPPKLLIYWASTRESGVPDRFSGSGSGTDFTLTISSLQAEDVAVYYCKQSYSRRTFGGGTKVEIK
notes: IgG; also called Ab236
B2: SAD10319_P03_G08 (ADI-48638) (antibody, V domains shown)
VH: B1 VH with T30S, E31S, E33D, N52D, P53A, L54G, N57F, H100A, V108H
VL: B1 VL
notes: IgG; also called Ab22
B3: SAD10319_P04_G11 (ADI-48641) (antibody, V domains shown)
VH: B1 VH with S21Y, E31T, W50S, P53A, L54G, T55D, G56A, H100A, G102H
VL: B1 VL
notes: IgG; also called Ab39
B4: SAD10319_P01_F02 (ADI-48624) (antibody, V domains shown)
VH: B1 VH with T30E, E31S, E33D, N52D, P53A, L54G, R72A, T74E, A76T
VL: B1 VL
notes: IgG; also called Ab241
B5: SAD10319_P01_C02 (ADI-57302) (antibody, V domains shown)
VH: B1 VH with E33N, K59L, H100A, G102H
VL: B1 VL
notes: IgG; also called Ab238
B6: SAD10319_P01_B03 (ADI-57305) (antibody, V domains shown)
VH: B1 VH with T30N, E31A, E33A, L54D, N57A, K59T, H100A, G102H
VL: B1 VL
notes: IgG; also called Ab243
B7: SAD10319_P02_D04 (ADI-57310) (antibody, V domains shown)
VH: B1 VH with E31S, E33A, E46Q, N52D, P53A, L54G, K59Y, H100A, Y101H
VL: B1 VL
notes: IgG; also called Ab251
B8: SAD10319_P04_C10 (ADI-57333) (antibody, V domains shown)
VH: B1 VH with E31D, E33S, W50S, P53A, L54G, N57I, H100A, Y101H, H103R
VL: B1 VL
notes: IgG; also called Ab31
B9: SAD10319_P04_C11 (ADI-57336) (antibody, V domains shown)
VH: B1 VH with T30H, E31S, L54S, N57S, H100A, H103R, V108H
VL: B1 VL
notes: IgG; also called Ab34
B10: SAD10319_P02_B04 (ADI-57308) (antibody, V domains shown)
VH: B1 VH with T30A, E31D, E33A, L54G, N57S, H100A, V108H
VL: B1 VL
notes: IgG; also called Ab249
B11: SAD10319_P01_D02 (ADI-57303) (antibody, V domains shown)
VH: B1 VH with E33D, L45P, N52D, P53A, L54G, N57A, K59V, H100A, H103R, V108H
VL: B1 VL
notes: IgG; also called Ab239
B12: SAD10319_P04_A10 (ADI-57331) (antibody, V domains shown)
VH: B1 VH with E31S, Y32D, E33A, E46A, W50Y, P53A, L54G, N57T, R98H, H100A
VL: B1 VL
notes: IgG; also called Ab29
B13: SAD10319_P04_E11 (ADI-57338) (antibody, V domains shown)
VH: B1 VH with E31D, E33N, L54Y, N57Y
VL: B1 VL
notes: IgG; also called Ab37
B14: SAD10319_P02_D05 (ADI-57316) (antibody, V domains shown)
VH: B1 VH with T30N, E31D, E33A, E46A, N52D, P53A, L54G, K59Y, H100A, Y101H
VL: B1 VL
notes: IgG; also called Ab258
B15: SAD10319_P02_A04 (ADI-57307) (antibody, V domains shown)
VH: B1 VH with T30D, E31S, E33S, L54D, N57A, K59D
VL: B1 VL
notes: IgG; also called Ab247
B16: SAD10319_P01_D03 (ADI-57306) (antibody, V domains shown)
VH: B1 VH with E31S, E33N, N52D, P53A, L54G, N57A, K59H, H100A, G102H
VL: B1 VL
notes: IgG; also called Ab245
B17: SAD10319_P02_C05 (ADI-57315) (antibody, V domains shown)
VH: B1 VH with E31D, E33N, N57T, H100A, G102H
VL: B1 VL
notes: IgG; also called Ab257
B18: SAD10319_P02_A05 (ADI-48629) (antibody, V domains shown)
VH: B1 VH with T30D, E31S, E33A, L54N, N57A, K59T
VL: B1 VL
notes: IgG; also called Ab255
B19: SAD10319_P03_H07 (ADI-57326) (antibody, V domains shown)
VH: B1 VH with T30N, E31S, E33D, L54Y, N57E
VL: B1 VL
notes: IgG; also called Ab19
B20: SAD10319_P03_D08 (ADI-57327) (antibody, V domains shown)
VH: B1 VH with T30Y, E31S, E46D, L54Q, N57A, H100A, G102H
VL: B1 VL
notes: IgG; also called Ab20
B21: SAD10319_P04_B11 (ADI-57335) (antibody, V domains shown)
VH: B1 VH with T30G, E31S, E33D, N52D, P53A, L54G, N57A, H100A, Y101H
VL: B1 VL
notes: IgG; also called Ab33
B22: SAD10319_P02_H05 (ADI-57319) (antibody, V domains shown)
VH: B1 VH with E31Q, E33S, P53A, L54G, N57D, K59V, Y101H, H103R
VL: B1 VL with L30F
notes: IgG; also called Ab7
B23: SAD10319_P04_F11 (ADI-57339) (antibody, V domains shown)
VH: B1 VH with E31D, E33N, E46Q, L54Y, N57Y
VL: B1 VL
notes: IgG; also called Ab38
B24: SAD10319_P02_D06 (ADI-48631) (antibody, V domains shown)
VH: B1 VH with E31D, E33A, P53A, L54G, N57A, K59I, H100A, G102H
VL: B1 VL
notes: IgG; also called Ab11
B25: SAD10319_P03_F09 (ADI-57329) (antibody, V domains shown)
VH: B1 VH with T30P, E31S, E33P, E46D, L54D, N57A, K59V, H100A, G102H
VL: B1 VL with L29P
notes: IgG; also called Ab27
B26: SAD10319_P01_C03 (ADI-48626) (antibody, V domains shown)
VH: B1 VH with E31D, E33D, N52D, L54Y, N57A, H100A
VL: B1 VL
notes: IgG; also called Ab244
B27: SAD10319_P02_H04 (ADI-57313) (antibody, V domains shown)
VH: B1 VH with E31S, E33A, L54D, N57A, H100A, Y101H
VL: B1 VL
notes: IgG; also called Ab254
B28: SAD10319_P02_F05 (ADI-57317) (antibody, V domains shown)
VH: QVQLVQSGAEVKKPGASVKVSCKASGYTFNNYAMHWVRQAPGQRLEWMGWIDAGTGNTDYSQKFQGRVTITRDTSASTAYMELSSLRSEDTAVYYCARDAHHRYFYDVWGQGTLVTVSS
VL: B1 VL
notes: IgG; also called Ab5
B29: SAD10319_P04_D11 (ADI-57337) (antibody, V domains shown)
VH: B28 VH with N31S, A33R, W50S, D59K, H101Y, H102G, V108H
VL: B1 VL
notes: IgG; also called Ab35
B30: SAD10319_P01_H02 (ADI-48625) (antibody, V domains shown)
VH: B1 VH with E31D, E33A, L54S, N57A, K59V, H100A, G102H
VL: B1 VL
notes: IgG; also called Ab242
B31: SAD10319_P02_G05 (ADI-57318) (antibody, V domains shown)
VH: B28 VH with N30T, N31Q, A33T, W50S, N57A, D59K, H101Y, R103H
VL: B1 VL
notes: IgG; also called Ab6
B32: SAD10319_P03_E08 (ADI-48637) (antibody, V domains shown)
VH: QVQLVQSGAEVKKPGASVKVSCKASGYTFNDYAMHWVRQAPGQRLEWMGYINGTGATVYSQKFQGRVTITRDTSASTAYMELSSLRSEDTAVYYCARDAYHHYFYDVWSQGTLVTVSS
VL: B1 VL
notes: IgG; also called Ab21
B33: SAD10319_P02_B05 (ADI-57314) (antibody, V domains shown)
VH: B28 VH with N30A, N31D, W50S, D52N, D59Y, H101Y, H102G, R103H
VL: B1 VL
notes: IgG; also called Ab256
B34: SAD10319_P03_H08 (ADI-57328) (antibody, V domains shown)
VH: B28 VH with N30K, N31S, A33D, L45P, D52N, D59V, H101Y
VL: B1 VL
notes: IgG; also called Ab23
B35: SAD10319_P03_G07 (ADI-57325) (antibody, V domains shown)
VH: B28 VH with N30D, N31S, A33L, N57A, D59N, H102G, R103H
VL: B1 VL
notes: IgG; also called Ab18
B36: SAD10319_P02_C04 (ADI-57309) (antibody, V domains shown)
VH: B1 VH with T30E, E31S, E33S, L54A, N57A, K59D, H100A, G102H
VL: B1 VL
notes: IgG; also called Ab250
B37: SAD10319_P03_G09 (ADI-57300) (antibody, V domains shown)
VH: B1 VH with E31S, E33D, N52D, L54H, N57A, H100A, H103R, V108H
VL: B1 VL
notes: IgG; ADI-57300 is also printed for Ab234; also called Ab28
B38: SAD10319_P02_B06 (ADI-57321) (antibody, V domains shown)
VH: B1 VH with E31S, E33T, L45P, W50S, P53A, L54G, N57F, K59D
VL: B1 VL
notes: IgG; also called Ab9
B39: SAD10319_P02_G06 (ADI-48632) (antibody, V domains shown)
VH: B1 VH with E31S, E33A, L54D, N57A, K59V, H100A, G102H
VL: B1 VL
notes: IgG; also called Ab15

For the experiment, the target named is T1, Cynomolgus CD3εδ Fc heterodimer (Cy …). The experiment can be described thus: BLI (Octet), IgG on AHC sensor, pH 6.0.
For orientation: koff means the first-order rate constant of dissociation. On to B1, for which the koff stood at 0.0165 s⁻¹. The figure for B2 is 0.0168 s⁻¹. The figure for B3 is 0.00317 s⁻¹; for B4 it is 0.00522 s⁻¹. In turn, B5 displayed a koff of 0.0251 s⁻¹.

Regarding B6, the koff turned out to be 0.0245 s⁻¹.

Regarding B7, the koff came out at 0.00322 s⁻¹.

Consider B8, for which the koff amounted to 0.00124 s⁻¹. The figure for B9 is 0.00317 s⁻¹.

B10 returned an off-rate (koff) of 0.0203 s⁻¹. The figure for B11 is 0.00686 s⁻¹.

Consider B12, for which the koff turned out to be 0.0262 s⁻¹. The figure for B13 is 0.0239 s⁻¹; for B14 it is 0.00296 s⁻¹.

B15 registered a koff of 0.0284 s⁻¹. The figure for B16 is 0.00221 s⁻¹; for B17 it is 0.00697 s⁻¹; for B18 it is 0.0269 s⁻¹.

In turn, B19 registered a koff of 0.0201 s⁻¹. The figure for B20 is 0.02 s⁻¹; for B21 it is 0.00273 s⁻¹. The figure for B22 is 0.019 s⁻¹. The figure for B23 is 0.00202 s⁻¹; for B24 it is 0.0212 s⁻¹; for B25 it is 0.0199 s⁻¹. With B26, the koff came out at 0.0196 s⁻¹. Turning to B27, the koff was 0.00313 s⁻¹. The figure for B28 is 0.0262 s⁻¹. The figure for B29 is 0.00339 s⁻¹; for B30 it is 0.0314 s⁻¹. The figure for B31 is 0.00475 s⁻¹. As for B32, the koff was 0.0197 s⁻¹. The figure for B33 is 0.0388 s⁻¹; for B34 it is 0.00348 s⁻¹; for B35 it is 0.0187 s⁻¹.

With B36, the koff was found to be 0.0215 s⁻¹. The figure for B37 is 0.0219 s⁻¹; for B38 it is 0.00531 s⁻¹. The figure for B39 is 0.0242 s⁻¹.
